Measured values: patent US20090118167A1, “Selective Vpac2 Receptor Peptide Agonists” (Eli Lilly and Company Patent Division, priority 2004, published 2009)
Square brackets hold non-standard residues; d marks the D form. Ends that are not written are not given here. Nle = CCCC[C@H](N)C(=O)O; Aib = CC(C)(N)C(=O)O

T1: human VPAC2 receptor (human, UniProt P41587 24-438)
T1 sequence (looked up): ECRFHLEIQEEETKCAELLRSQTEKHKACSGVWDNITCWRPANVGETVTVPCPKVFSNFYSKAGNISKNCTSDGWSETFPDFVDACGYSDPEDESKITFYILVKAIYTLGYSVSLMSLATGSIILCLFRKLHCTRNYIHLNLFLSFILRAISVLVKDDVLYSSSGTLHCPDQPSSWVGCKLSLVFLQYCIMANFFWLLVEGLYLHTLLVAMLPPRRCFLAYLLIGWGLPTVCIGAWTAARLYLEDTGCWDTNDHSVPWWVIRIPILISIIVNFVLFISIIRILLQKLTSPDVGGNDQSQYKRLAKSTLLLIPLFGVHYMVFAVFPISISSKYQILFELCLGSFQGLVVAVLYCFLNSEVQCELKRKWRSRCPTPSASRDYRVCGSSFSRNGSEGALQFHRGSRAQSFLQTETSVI

B1: P277 (cyclic PEGylated VPAC2 receptor peptide agonist) (peptide)
peptide: HSDAVFTENYTKLRKQ[Nle]AAKKYLNDLKQGGPSSGAPPPC
modifications: also: further groups not given here
B2: P268 (cyclic PEGylated VPAC2 receptor peptide agonist) (peptide)
peptide: HSDAVFTENYTKLRKQ[Nle]AAKKYLNDLKQKGGPSSGAPPPC
modifications: ends and bridges not checked; also: cyclic bridge (lactam or disulfide), places not given here, PEGylated, site not given here
B3: P279 (cyclic PEGylated VPAC2 receptor peptide agonist) (peptide)
peptide: HSDAVFTENYTKLR[Aib]Q[Nle]AAKKYLNDLKKGGPSSGAPPPC
modifications: also: further groups not given here
B4: P274 (cyclic PEGylated VPAC2 receptor peptide agonist) (peptide)
peptide: HSDAVFTENYTKL[Aib]KQ[Nle]AAKKYLNDLKQKGGPSSGAPPPC
modifications: also: further groups not given here

Experiments:
human VPAC2 receptor [1] = target: T1, human VPAC2 receptor; test: cell-based or functional assay
human VPAC2 receptor [2] = target: T1, human VPAC2 receptor; test: filter binding assay, human VPAC2 membranes, displacement of 125I-VIP
Protocol: The assay plate is filled with 25 μL assay buffer, 25 μL membranes (2.5 μg) suspended in assay buffer, 25 μL compound (agonist) in assay buffer, and 25 μL tracer (about 40000 cpm) in assay buffer. The filled plate is incubated for 1 hour with shaking.
The transfer from assay plate to filter plate is conducted. The blocking buffer is aspirated by vacuum filtration and washed two times with flush buffer. 90 μL is transferred from the assay plate to the filter plate. The 90 μL transferred from assay plate is aspirated and washed three times with 200 μL flush buffer. The plastic support is removed. It is dried for 1 hour at 60° C. 30 μL Microscint is added. The count is performed.

Row | Binder | EC50 for cAMP generation, Alpha screen (human VPAC2 receptor [1]) [nM] | IC50 (human VPAC2 receptor [2]) [nM]
1 | B1 | 470 | 90.9
2 | B2 | 8.82 | 
3 | B3 | 5.93 | 7.2
4 | B4 | 76.1 | 126
